Measured values taken from article PMC7822688, “W196 and the β-Hairpin Motif Modulate the Redox Switch of Conformation and the Biomolecular Interaction Network of the Apoptosis-Inducing Factor” (Oxidative Medicine and Cellular Longevity, 2021).
Values joined by “and” are separate entries in the source; they are usually repeats but may differ in a detail not shown here. Equal values may be shown once. “Also recorded” adds a separate entry of the source. Read-outs that look alike come from different tables or passages of the source.

Columns and labels:
[1] = Steady-state DCPIP-dependent diaphorase (NADH oxidase) activity; format: biochemical; settings: for K m ^NADH / k cat: steady-state, NADH donor, 95 μM DCPIP acceptor, 25°C, 50 mM potassium phosphate, pH 7.4 (table footnote); for k cat: n = 3, mean ± SD
Source text: […] When saturation profiles on the pyridine nucleotide concentration were observed, kinetic constants were estimated by fitting initial reaction rates at different coenzyme concentrations to the Michaelis-Menten equation: (2) ν/e=kcat NADH/KmNADH+NADH,ν/e=kcat/KmNADHNADH/1+kcat/KmNADHNADH/kcat, where v stands for the initial velocity, e is the enzyme concentration, Km^NADH is the Michaelis constant for the enzyme-NADH complex, kcat is the turnover number of the enzyme, and kcat/Km^NADH is the enzyme catalytic efficiency.

[2] = Stopped-flow reduction of hAIF∆1-101ox by NADH (hydride transfer); format: biochemical; settings: for k HT/Kd^NADH / k HT / Kd: pre-steady-state, 25°C, pH 7.4; for k HT: hydride transfer from NADH to FAD, aerobic, 50 mM potassium phosphate; for Kd: transient hAIF∆1-101ox:NADH complex, read-out: K d ^NADH
Description: A SX18.MV stopped-flow spectrophotometer (Applied Photophysics Ltd., Surrey, UK), interfaced with the ProData-SX software and a photodiode array detector, was used to investigate the fast kinetic reduction of the hAIF variants by the NADH coenzyme. Samples of ~10 μM hAIF∆1-101ox were mixed with increasing concentrations of NADH (0.03-10 mM) under aerobic conditions in 50 mM potassium phosphate, pH 7.4, at 25 °C. The enzyme and NADH concentrations are the final ones obtained after mixing equal volumes of substrate and enzyme. Observed rate constants for the hydride transfer (HT) event (kobs) were calculated by global analysis and numerical integration methods (simultaneously using all spectral data in the 400-800 nm region along time evolution). A single-step model (A→B) best fitted to describe the overall reaction at all NADH concentrations assayed. Averaged kobs values at each NADH concentration were then fitted to the equation that describes the formation of an enzyme:substrate complex prior to the HT event: (3) kobs=kHTNADH/KdNADH+NADH+krev, where kHT is the limiting rate constant for HT from the pyridine nucleotide coenzyme to the FAD cofactor of hAIF, Kd^NADH is the dissociation constant of the transient hAIF∆1-101ox:NADH complex, and krev is the reaction constant for a potential overall reverse process.

[3] = Stopped-flow CTC formation on mixing photoreduced hAIF∆1-101 with NAD+; format: biochemical; settings: for k CTC: hAIF∆1-101phrd variants mixed with NAD+; for k CTC / k CTC/Kd^NAD+ / Kd: anaerobic, 25°C, pH 7.4; for k CTC/Kd^NAD+: hAIF∆1-101phrd variants; for Kd: transient hAIF∆1-101phrd:NAD+ complex, read-out: K d ^NAD+
Description: Stopped-flow spectrophotometry was also used to evaluate the rate constants of CTC formation when mixing photoreduced hAIF∆1-101 (hAIF∆1-101phrd) with increasing concentrations of NAD^+ (0.125-5 mM) under anaerobic conditions. hAIF∆1-101phrd samples were obtained by photoreduction in the presence of 5 μM methyl viologen, 3 μM 5-deazariboflavin, and 20 mM EDTA. The assays were performed at 25 °C in 50 mM potassium phosphate, pH 7.4, under anaerobic conditions (obtained by several cycles of vacuum application and bubbling with O2 free argon). Data were global fitted to a single step model (A→B), and kobs were determined at the different NAD^+ concentrations assayed. These values were then fitted to the equation that describes the formation of a transient hAIF∆1-101phrd:NAD^+ complex prior to the CTC stabilization: (4) kobs=kCTCNAD^+/KdNAD++NAD^+, in which kCTC is the limiting rate constant for the rearrangement of the encounter complex to form the CTC, and Kd^NAD+ is the dissociation constant for the mentioned transient encounter complex.

[4] = Reactivity of the CTC towards molecular oxygen (CTC half-life); format: biochemical; settings: 25°C, air saturated 50 mM potassium phosphate, pH 7.4
Description: The reactivity of the CTC towards molecular oxygen was monitored by full reduction of hAIF∆1-101 samples with NADH (1.5-fold the concentration of the protein) in 50 mM phosphate buffer, pH 7.4, and following their reoxidation in a Cary 100 spectrophotometer (Agilent, Santa Clara, CA). Absorption spectra were recorded at 25 °C until full oxidation of the flavin cofactor was achieved. For each time, the percent remaining of CTC versus reoxidation by molecular oxygen was estimated as ΔAt/ΔAmax, where ΔAmax is the difference between the minimum and the maximum absorbance at 700 nm, and ΔAt is the difference of each value at 700nm minus the minimum absorbance at 700 nm. The CTC half-life is the time at which 50% of CTC still remains.

[5] = target: T1, CHCHD4 (Homo sapiens, UniProt Q8N4Q1); experiment: ITC binary interaction with CHCHD4; format: binding; settings: for Kd / ΔG / ΔH / -TΔS: 25°C, pH 7.4
T1 construct: His6 (N); made in house; host or cells: E. coli C41 (DE3)
T1 sequence (Q8N4Q1 1-142): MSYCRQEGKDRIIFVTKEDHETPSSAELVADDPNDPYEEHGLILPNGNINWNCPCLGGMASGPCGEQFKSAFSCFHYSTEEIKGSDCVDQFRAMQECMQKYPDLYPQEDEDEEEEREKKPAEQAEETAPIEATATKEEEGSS
Description: (§1) ITC assays were carried out using an Auto-iTC200 (MicroCal, Malvern-Panalytical, Malvern, UK) thermostated at 25 °C. Typically, […] protein partner and dsDNA samples—prepared as described below—were used to titrate ~10 μM hAIF∆1-101 variants. All solutions were degassed at 15°C for 1 min before each assay. A sequence of 2 μL injections of titrant solution every 150 s was programmed, and the stirring speed was set to 750 rpm. The association constant (Ka), the enthalpy of binding (ΔH), and the binding stoichiometry (N) were estimated through nonlinear least-squares regression of the experimental data employing a single-ligand binding site model implemented in Origin 7.0 (OriginLab, Northampton, MA). The dissociation constant (Kd), the free energy change (ΔG), and the entropy change (ΔS) were obtained from basic thermodynamic relationships.

[6] = target: T2, CypA (Homo sapiens, UniProt P62937); experiment: ITC binary interaction with CypA; format: binding; settings: oxidized hAIF∆1-101 titrated with CypA, 25°C, pH 7.4
T2 construct: His6 (N); made in house; host or cells: E. coli C41 (DE3)
Description: as §1

[7] = target: dsDNA; experiment: ITC binary interaction with dsDNA; format: binding; settings: for Kd for DNA higher than WT: hAIFΔ1−101ox, binary complexes; for Kd: oxidized hAIF∆1-101 titrated with 15-bp dsDNA, 25°C, pH 7.4
Description: as §1
Since hAIF binds DNA unspecifically, a 0.5 mM dsDNA sample was prepared from 1 mM solutions of HPLC-purified forward and a reverse complementary 15-bp oligonucleotides (5′- GGT TAG TTA TGC GCG -3′; randomly designed) synthetized by Integrated DNA Technologies. The pair of oligonucleotides was mixed at an equimolar ratio and annealed by heating 1 min at 99°C and performing a 3 h temperature scanning from 95 to 25°C, decreasing 1°C each 3 min. 0.5 mM dsDNA stock solutions were obtained.

[8] = for T m CTC ^FAD − Tm^FAD: CTC state relative to oxidized state of the same variant; for ΔTm^FAD: variant relative to WT; for T m ^FAD: ~2 μM protein, 50 mM potassium phosphate; for ΔTm CTC^FAD: CTC state, variant relative to WT CTC
Description: Thermal denaturation curves were followed by changes in the FAD fluorescence emission upon its release from the protein by sample excitation at 450 nm. Curves were monitored from 10 °C to 90 °C with scan rates of 1°C/min, both in the absence and presence of a 100-fold excess of NADH. The curves for each variant were roughly normalized to values between 0 and 1 and globally fitted to a two-step process describing a single transition unfolding equilibrium (native (N)↔unfolded (U)) by using the following equation [23]: (1) Sobs=SN+mNT+SU+mUTe^−ΔG/RT/1+e^−ΔG/RT, in which Sobs is the measured protein signal at a given temperature (T). SN and SU are intercept at 0 K with the y-axis of the linear extrapolation for the native and unfolded pre- and posttransition regions, respectively, while mN and mU are the corresponding slopes. The stabilization Gibbs energy depends on temperature according to ΔG = ΔH(1 − 1/Tm) + ΔCP(T − Tm − Tln(T/Tm)), where ΔH is the unfolding enthalpy, Tm is the midtransition temperature, ΔCP is the unfolding heat capacity change, and R is the ideal gas constant.

[9] = steady-state DCPIP diaphorase reaction
[10] = CTC form (premixed with NADH 1:100) titrated with CHCHD4, ITC, read-out: K d
[11] = CTC form titrated with CHCHD4, ITC
[12] = oxidized hAIF∆1-101 titrated with CHCHD4, ITC
[13] = CTC hAIF∆1-101rd:NAD^+, 100-fold excess NADH
[14] = CTC hAIF∆1-101rd:NAD^+, 100-fold excess NADH, pH 7.4, ionic strength 150 mM
[15] = hAIF∆1-101ox, pH 7.4, ionic strength 150 mM

T2 sequence (P62937 whole entry): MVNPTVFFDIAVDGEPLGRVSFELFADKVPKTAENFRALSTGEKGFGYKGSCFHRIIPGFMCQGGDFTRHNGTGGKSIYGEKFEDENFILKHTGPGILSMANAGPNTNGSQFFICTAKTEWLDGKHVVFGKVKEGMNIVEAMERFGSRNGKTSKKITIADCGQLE

| k HT/Kd^NADH [2] | Kd [2] | k CTC/Kd^NAD+ [3] | decrease in Kd^NAD+ relative to WT ([3]; hAIF∆1-101phrd with NAD+) | Kd [3] | Kd [5, 10] | ΔG [5, 11] | ΔH [5, 11] | -TΔS [6] | Substance | increase in turnover rate relative to WT [1, 9] | K m ^NADH [1] | k cat [1] | k HT [2] | k CTC [3] | CTC half-life versus reoxidation by O2 [4] | ΔH (unfolding enthalpy) [8, 13] | T m CTC ^FAD [8, 14] | T m CTC ^FAD − Tm^FAD [8] | ΔH (unfolding enthalpy) [8, 15] | T m ^FAD [8, 15] | also measured |
| --- | --- | --- | --- | --- | --- | --- | --- | --- | --- | --- | --- | --- | --- | --- | --- | --- | --- | --- | --- | --- | --- |
| 117000 ± 5300 M⁻¹ s⁻¹ | 1070 ± 40 µM | 76000 ± 10000 M⁻¹ s⁻¹ | ~ 5 fold | 394 ± 50 µM | 0.5 µM | -8.3 kcal/mol | -5.9 kcal/mol | -34.9 kcal/mol | W196A: W196A site-directed mutant of hAIF∆1-101; ox = oxidized, CTC = charge transfer complex with NAD+ | ~ 5 fold | 25 ± 4 µM | 4.3 ± 0.2 s⁻¹ | 126 ± 1 s⁻¹ | 30 ± 1 s⁻¹ | 62 min | 170 ± 4 kcal/mol | 326 ± 1 K | 0 K | 103 ± 3 kcal/mol | 326 ± 1 K | higher affinity for the NADH substrate relative to WT ([2]; stopped-flow, NADH): ~ 5 fold; Kd ([5]; oxidized hAIF∆1-101 titrated with CHCHD4, ITC, 50 mM potassium phosphate, listed as W196Aox, read-out: K d): ~0.4 µM and 0.4 µM; -TΔS [5, 12]: -18.0 kcal/mol; ΔG [5, 12]: -8.4 kcal/mol; ΔH [5, 12]: 9.6 kcal/mol; ΔG [6]: -7.6 kcal/mol; ΔH [6]: 27.3 kcal/mol; Kd for DNA higher than WT [7]: ~ 4 fold; Kd [7]: 5.8 µM; ΔTm^FAD ([8]; hAIF∆1-101ox): −11 ± 2 K |
| 21000 ± 3000 M⁻¹ s⁻¹ | 1720 ± 210 µM | 67000 ± 18000 M⁻¹ s⁻¹ | ~ 5 fold | 433 ± 11 µM |  |  |  |  | W196L: W196L site-directed mutant of hAIF∆1-101 | ~ 3 fold | 187 ± 18 µM | 2.8 ± 0.1 s⁻¹ | 36 ± 1 s⁻¹ | 29 ± 2 s⁻¹ | 32 min | 159 ± 4 kcal/mol | 324 ± 1 K | −2 ± 2 K | 118 ± 3 kcal/mol | 326 ± 1 K | decrease in Km^NADH relative to WT [1, 9]: ~ 3 fold; efficiency oxidizing NADH relative to WT [1, 9]: ~ 8 times; ΔTm CTC^FAD [8]: 0 K; ΔTm^FAD ([8]; hAIF∆1-101ox): −11 ± 2 K |
| 4000 ± 800 M⁻¹ s⁻¹ | 2870 ± 320 µM | 87000 ± 14000 M⁻¹ s⁻¹ | ~ 11 fold | 183 ± 27 µM | 2.1 µM | -7.5 kcal/mol | -8.2 kcal/mol | -24.9 kcal/mol | W196Y: W196Y site-directed mutant of hAIF∆1-101; ox = oxidized, CTC = charge transfer complex with NAD+ | ~ 3 fold | 505 ± 35 µM | 2.7 ± 0.1 s⁻¹ | 12 ± 1 s⁻¹ | 16 ± 1 s⁻¹ | 42 min | 167 ± 4 kcal/mol | 323 ± 1 K | −6 ± 2 K | 123 ± 3 kcal/mol | 329 ± 1 K | efficiency oxidizing NADH relative to WT [1, 9]: ~ 3 times; efficiency as hydride acceptor from NADH relative to WT ([2]; stopped-flow, NADH): ~ 12 fold; decrease in kCTC relative to WT ([3]; hAIF∆1-101phrd with NAD+): less than 3 fold; -TΔS [5, 11]: 0.7 kcal/mol; Kd for CHCHD4 higher relative to WT CTC ([5]; CTC form, ITC): ~ 10 fold; Kd ([5]; oxidized hAIF∆1-101 titrated with CHCHD4, ITC, 50 mM potassium phosphate, listed as W196Yox): heat exchange was not observed; also recorded: No detected binding; ΔG [6]: -7.9 kcal/mol; ΔH [6]: 17.0 kcal/mol; Kd for DNA higher than WT [7]: ~ 4 fold; Kd [7]: 6.9 µM; ΔTm CTC^FAD [8]: −1 ± 2 K; ΔTm^FAD ([8]; hAIF∆1-101ox): −8 ± 2 K |
| 400 ± 100 M⁻¹ s⁻¹ | 4090 ± 300 µM | 22000 ± 3000 M⁻¹ s⁻¹ |  | 2080 ± 250 µM | 0.2 µM | -8.7 kcal/mol | -20.1 kcal/mol | 17.2 kcal/mol | WT: wild-type human apoptosis-inducing factor, soluble form hAIF∆1-101 (UniProtKB O95831); ox = oxidized, CTC = NADH-reduced charge transfer complex |  | 495 ± 170 µM | 0.9 ± 0.1 s⁻¹ | 1.5 ± 0.1 s⁻¹ | 45 ± 2 s⁻¹ | 72 min | 150 ± 4 kcal/mol | 324 ± 1 K | −13 ± 2 K | 128 ± 3 kcal/mol | 337 ± 1 K | -TΔS [5, 11]: 11.4 kcal/mol; Kd ([5]; oxidized hAIF∆1-101 titrated with CHCHD4, ITC, 50 mM potassium phosphate, listed as WTox): heat exchange was not observed; also recorded: No detected binding; ΔG [6]: -7.3 kcal/mol; ΔH [6]: -24.5 kcal/mol; Kd [7]: 1.6 µM |
